Target: Biotinylated calmodulin (UniProt P62157)
Experiment: film bulk acoustic resonator (FBAR); biotinylated calmodulin immobilised on Neutravidin adsorbed on the gold sensor surface (190 ng/cm^2 shown; qualitatively the same at all surface concentrations); peptide injected in flow, 10 µL/min; 10 mM HEPES-NaOH, pH 7.2, 100 mM NaCl, 1 mM CaCl2; resonant frequency and motional resistance monitored; peptide concentration not given

Ca2+/calmodulin kinase II inhibitor (CaMKII 281-309) (from UniProt P11275 281-309) (peptide)
resonant frequency shift at saturation: -1.4 MHz

— PMC4264349
